Experiments:
Experiment in all cases: cell-based or functional assay
hCav1.2 (human) = hCav1.2 (human) (UniProt Q13936)
hKCNQ1/minK (human) = hKCNQ1/minK (human) (UniProt P51787)
hKV11.1/hERG (human) = hKV11.1/hERG (human) (UniProt Q12809)
hNav1.5 (human) = hNav1.5 (human) (UniProt Q14524)

Sequence of hCav1.2 (human) (Q13936 whole entry): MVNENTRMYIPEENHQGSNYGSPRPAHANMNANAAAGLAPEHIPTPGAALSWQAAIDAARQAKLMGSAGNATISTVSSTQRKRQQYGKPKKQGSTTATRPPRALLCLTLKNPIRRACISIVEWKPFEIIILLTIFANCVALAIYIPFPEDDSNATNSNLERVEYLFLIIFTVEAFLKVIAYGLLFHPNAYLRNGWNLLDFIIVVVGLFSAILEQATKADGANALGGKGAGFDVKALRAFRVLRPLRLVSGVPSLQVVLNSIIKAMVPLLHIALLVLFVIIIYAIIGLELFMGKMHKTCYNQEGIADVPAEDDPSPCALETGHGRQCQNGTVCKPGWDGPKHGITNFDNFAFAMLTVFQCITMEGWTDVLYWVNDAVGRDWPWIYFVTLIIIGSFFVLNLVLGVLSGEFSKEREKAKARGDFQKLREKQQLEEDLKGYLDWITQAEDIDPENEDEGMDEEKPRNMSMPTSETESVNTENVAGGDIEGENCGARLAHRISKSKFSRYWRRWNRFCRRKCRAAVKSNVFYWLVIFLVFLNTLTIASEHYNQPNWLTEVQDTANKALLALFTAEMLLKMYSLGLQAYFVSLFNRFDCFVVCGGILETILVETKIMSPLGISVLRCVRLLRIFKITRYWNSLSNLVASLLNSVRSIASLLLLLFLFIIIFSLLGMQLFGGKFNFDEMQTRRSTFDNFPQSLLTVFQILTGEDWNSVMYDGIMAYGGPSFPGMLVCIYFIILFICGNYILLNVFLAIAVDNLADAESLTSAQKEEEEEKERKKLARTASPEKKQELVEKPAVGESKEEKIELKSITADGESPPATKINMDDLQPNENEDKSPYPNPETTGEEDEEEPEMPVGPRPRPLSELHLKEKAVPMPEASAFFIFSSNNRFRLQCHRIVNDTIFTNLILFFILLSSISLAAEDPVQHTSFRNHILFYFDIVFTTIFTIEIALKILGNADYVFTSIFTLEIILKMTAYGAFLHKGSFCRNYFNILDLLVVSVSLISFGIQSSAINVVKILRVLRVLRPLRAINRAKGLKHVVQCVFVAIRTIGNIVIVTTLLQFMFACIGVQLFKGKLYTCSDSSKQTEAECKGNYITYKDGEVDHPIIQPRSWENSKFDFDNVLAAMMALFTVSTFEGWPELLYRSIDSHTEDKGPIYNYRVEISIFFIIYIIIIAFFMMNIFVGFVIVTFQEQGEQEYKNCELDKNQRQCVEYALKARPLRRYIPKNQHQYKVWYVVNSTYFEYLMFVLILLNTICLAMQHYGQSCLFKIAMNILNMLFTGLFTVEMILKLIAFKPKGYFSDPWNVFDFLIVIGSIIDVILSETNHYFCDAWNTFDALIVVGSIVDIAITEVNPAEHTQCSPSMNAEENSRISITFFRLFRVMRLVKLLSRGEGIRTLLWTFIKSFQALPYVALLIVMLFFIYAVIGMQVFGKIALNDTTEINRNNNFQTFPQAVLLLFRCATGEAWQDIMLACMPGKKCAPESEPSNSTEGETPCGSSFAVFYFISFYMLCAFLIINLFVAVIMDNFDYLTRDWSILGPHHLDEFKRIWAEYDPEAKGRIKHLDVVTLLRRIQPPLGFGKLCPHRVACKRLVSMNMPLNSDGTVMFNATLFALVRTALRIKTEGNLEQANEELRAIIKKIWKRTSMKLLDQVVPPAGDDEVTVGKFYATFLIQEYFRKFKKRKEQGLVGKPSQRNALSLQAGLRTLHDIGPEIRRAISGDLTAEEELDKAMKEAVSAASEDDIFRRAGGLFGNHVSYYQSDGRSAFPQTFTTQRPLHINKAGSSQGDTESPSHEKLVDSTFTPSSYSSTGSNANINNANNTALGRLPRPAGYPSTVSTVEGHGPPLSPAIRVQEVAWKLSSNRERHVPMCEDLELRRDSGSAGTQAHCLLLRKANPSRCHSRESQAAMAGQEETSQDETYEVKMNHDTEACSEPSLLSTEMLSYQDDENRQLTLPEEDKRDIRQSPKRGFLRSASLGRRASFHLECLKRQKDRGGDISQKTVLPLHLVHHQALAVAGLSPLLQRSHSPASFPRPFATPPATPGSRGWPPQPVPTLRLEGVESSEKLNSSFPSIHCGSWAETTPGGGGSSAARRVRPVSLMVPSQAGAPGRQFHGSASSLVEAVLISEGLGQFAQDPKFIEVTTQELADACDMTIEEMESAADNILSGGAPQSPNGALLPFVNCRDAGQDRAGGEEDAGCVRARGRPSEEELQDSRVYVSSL
Sequence of hKV11.1/hERG (human) (Q12809 whole entry): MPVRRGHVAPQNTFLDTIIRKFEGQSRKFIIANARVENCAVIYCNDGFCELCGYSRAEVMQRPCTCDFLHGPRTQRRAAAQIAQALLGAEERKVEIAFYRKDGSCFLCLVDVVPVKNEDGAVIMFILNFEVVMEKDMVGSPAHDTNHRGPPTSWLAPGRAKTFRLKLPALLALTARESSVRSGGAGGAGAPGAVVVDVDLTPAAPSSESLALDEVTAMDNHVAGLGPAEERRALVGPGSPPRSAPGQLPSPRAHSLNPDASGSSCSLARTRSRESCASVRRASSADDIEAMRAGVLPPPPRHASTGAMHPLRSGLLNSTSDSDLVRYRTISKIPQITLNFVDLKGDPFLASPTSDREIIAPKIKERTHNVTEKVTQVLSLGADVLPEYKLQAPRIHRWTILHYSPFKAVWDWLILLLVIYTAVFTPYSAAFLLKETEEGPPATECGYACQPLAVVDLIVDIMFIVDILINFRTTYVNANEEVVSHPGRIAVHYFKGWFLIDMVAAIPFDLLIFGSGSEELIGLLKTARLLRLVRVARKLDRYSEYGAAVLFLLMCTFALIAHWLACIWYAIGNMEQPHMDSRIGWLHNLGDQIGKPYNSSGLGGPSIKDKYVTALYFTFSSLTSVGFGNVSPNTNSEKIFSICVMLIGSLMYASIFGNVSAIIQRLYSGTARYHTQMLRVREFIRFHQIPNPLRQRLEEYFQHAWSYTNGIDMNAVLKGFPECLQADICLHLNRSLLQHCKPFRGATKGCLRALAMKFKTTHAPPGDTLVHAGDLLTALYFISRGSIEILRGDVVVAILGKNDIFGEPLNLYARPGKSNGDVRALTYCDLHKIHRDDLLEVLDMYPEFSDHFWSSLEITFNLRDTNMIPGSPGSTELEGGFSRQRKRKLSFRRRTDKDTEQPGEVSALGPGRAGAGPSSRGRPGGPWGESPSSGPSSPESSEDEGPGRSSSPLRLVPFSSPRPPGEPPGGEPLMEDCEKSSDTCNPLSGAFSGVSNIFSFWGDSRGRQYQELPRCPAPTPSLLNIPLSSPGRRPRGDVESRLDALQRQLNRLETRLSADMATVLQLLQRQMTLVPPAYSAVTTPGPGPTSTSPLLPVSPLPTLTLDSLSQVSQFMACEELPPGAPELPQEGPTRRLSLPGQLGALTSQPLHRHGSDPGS

## Hi1a (recombinant, with non-native N-terminal serine) (peptide)
hCav1.2 (human)
  % inhibition of hCav1.2 current, mean, 1 µM Hi1a: 8.98%
  % inhibition of hCav1.2 current, n1, 1 µM Hi1a: 2.79%
  % inhibition of hCav1.2 current, n2, 1 µM Hi1a: 13.2%
  % inhibition of hCav1.2 current, n3, 1 µM Hi1a: 10.9%
hKCNQ1/minK (human)
  % inhibition of hKCNQ1/mink current, mean, 1 µM Hi1a: 0.17%
  % inhibition of hKCNQ1/mink current, n1, 1 µM Hi1a: 1.87%
  % inhibition of hKCNQ1/mink current, n2, 1 µM Hi1a: -0.67%
  % inhibition of hKCNQ1/mink current, n3, 1 µM Hi1a: -0.68%
hKV11.1/hERG (human)
  % inhibition of hERG current, mean, 1 µM Hi1a: -6.2%
  % inhibition of hERG current, n1, 1 µM Hi1a: -7.5%
  % inhibition of hERG current, n2, 1 µM Hi1a: 1.58%
  % inhibition of hERG current, n3, 1 µM Hi1a: -12.7%
hNav1.5 (human)
  % inhibition of hNav1.5 current, mean, 1 µM Hi1a: 8.46%
  % inhibition of hNav1.5 current, n1, 1 µM Hi1a: 7.31%
  % inhibition of hNav1.5 current, n2, 1 µM Hi1a: 11%
  % inhibition of hNav1.5 current, n3, 1 µM Hi1a: 7.1%
  % inhibition, hNav1.5 Late current antagonist assay, mean, 1 µM Hi1a: -12.4%
  % inhibition, hNav1.5 Late current antagonist assay, n1, 1 µM Hi1a: -9.74%
  % inhibition, hNav1.5 Late current antagonist assay, n2, 1 µM Hi1a: -13.9%
  % inhibition, hNav1.5 Late current antagonist assay, n3, 1 µM Hi1a: -13.4%

From patent publication US20220177846A1
